Molecular target: MERS-CoV spike receptor binding domain (RBD), residues 367–606, His-tagged (MERS-CoV), K0BRG7
Experiment: SPR
Conditions: remark: other sources report otherwise

B1: human CD26 (dipeptidyl peptidase 4), residues 39–766, His-tagged, P27487 39-766 (receptor)
chain: SRKTYTLTDYLKNTYRLKLYSLRWISDHEYLYKQENNILVFNAEYGNSSVFLENSTFDEFGHSINDYSISPDGQFILLEYNYVKQWRHSYTASYDIYDLNKRQLITEERIPNNTQWVTWSPVGHKLAYVWNNDIYVKIEPNLPSYRITWTGKEDIIYNGITDWVYEEEVFSAYSALWWSPNGTFLAYAQFNDTEVPLIEYSFYSDESLQYPKTVRVPYPKAGAVNPTVKFFVVNTDSLSSVTNATSIQITAPASMLIGDHYLCDVTWATQERISLQWLRRIQNYSVMDICDYDESSGRWNCLVARQHIEMSTTGWVGRFRPSEPHFTLDGNSFYKIISNEEGYRHICYFQIDKKDCTFITKGTWEVIGIEALTSDYLYYISNEYKGMPGGRNLYKIQLSDYTKVTCLSCELNPERCQYYSVSFSKEAKYYQLRCSGPGLPLYTLHSSVNDKGLRVLEDNSALDKMLQNVQMPSKKLDFIILNETKFWYQMILPPHFDKSKKYPLLLDVYAGPCSQKADTVFRLNWATYLASTENIIVASFDGRGSGYQGDKIMHAINRRLGTFEVEDQIEAARQFSKMGFVDNKRIAIWGWSYGGYVTSMVLGSGSGVFKCGIAVAPVSRWEYYDSVYTERYMGLPTPEDNLDHYRNSTVMSRAENFKQVEYLLIHGTADDNVHFQQSAQISKALVDVGVDFQAMWYTDEDHGIASSTAHQHIYTHMSHFIKQCFSLP
modifications: here or on the partner: N229-linked carbohydrate
Kd: 16.7 nM | koff: 0.00299 s⁻¹ | kon: 179000 M⁻¹ s⁻¹
